Consider four molecules from paper doi:10.1101/2024.02.17.580827 (bioRxiv, 2024).

This assay addresses T1, FolK (purified protein) (E. coli, UniProt P26281 1-159).
T1 sequence: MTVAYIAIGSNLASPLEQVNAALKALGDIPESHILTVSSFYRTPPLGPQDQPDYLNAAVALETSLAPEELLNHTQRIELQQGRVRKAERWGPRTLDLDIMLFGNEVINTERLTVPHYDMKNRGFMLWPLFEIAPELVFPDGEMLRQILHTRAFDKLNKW
Kind of assay: Raman spectroscopy.

Residue numbers refer to the chain shown, from its start. Names and notes keep the numbering of the source.

B1: WT DHFR (purified protein) (enzyme)
chain: MISLIAALAVDRVIGMENAMPWNLPADLAWFKRNTLNKPVIMGRHTWESIGRPLPGRKNIILSSQPGTDDRVTWVKSVDEAIAACGDVPEIMVIGGGRVYEQFLPKAQKLYLTHIDAEVEGDTHFPDYEPDDWESVFSEFHDADAQNSHSYCFEILERR
As a reminder, the Kd is the concentration at which binding is half-saturated. High values mean weaker binding, low ones tighter binding. As to B1, the Kd amounted to 22 µM.

B2: D132H DHFR (purified protein) (enzyme)
chain: B1 chain with D132H
The molecule B2 showed an equilibrium dissociation constant (Kd) of 8.1 µM.

B3: D144N DHFR (purified protein) (enzyme)
chain: B1 chain with D144N
For B3, the Kd is 10 µM. This Kd and that of the molecule before are within 1.5-fold of each other.

B4: N23V DHFR (purified protein) (enzyme)
chain: B1 chain with N23V
As for B4, the affinity, expressed as Kd, was 5.1 µM. This Kd lies about 2-fold lower than the previous one.
